Measured values as given in publication PMC6513101, “Experimentally guided computational antibody affinity maturation with de novo docking, modelling and rational design” (PLoS Computational Biology, 2019).
Positions count from the first letter of the chain named. Names may count otherwise.

B1: AB1 alanine variant 19 (H:Y26A) (antibody, V domains shown)
VH: QVQLQQSGAELAKPGSSVKISCKAAGSSFTTNSIHWIKQTTGQALEWTGYIAPGSGGARYNEKFKGKATLTVDKSSGTAYMQLSSLTPVDTAVYYCALNIGTNPFTYWGQGTLVTVSS
VL: DIVMTQGALPNPVPSGESVSITCRSSKSLLYSDGKTYLNWYLQRPGQSPQLLIYWMSTRASGVSDRFSGSGSGTDFTLKISGVEAEDVGVYYCQQGLEFPRTFGSGTKLEIK
notes: IMGT numbering; IgG1, as m1; also called control; source: HEK293FT, transiently transfected, purified (Protein A)
B2: AB1 affinity maturation variant 8 (H:I108R) (antibody, V domains shown)
VH: B1 VH with A25Y, I100R
VL: B1 VL
notes: IMGT numbering; IgG1, as m1; source: HEK293FT, transiently transfected, purified (Protein A)
B3: AB1 affinity maturation variant 3 (H:T36Q) (antibody, V domains shown)
VH: B1 VH with A25Y, T31Q
VL: B1 VL
notes: as for B2
B4: AB1 affinity maturation variant 5 (H:G59Y) (antibody, V domains shown)
VH: B1 VH with A25Y, G54Y
VL: B1 VL
notes: as for B2
B5: AB1 affinity maturation variant 9 (H:T110W) (antibody, V domains shown)
VH: B1 VH with A25Y, T102W
VL: B1 VL
notes: as for B2
B6: AB1 affinity maturation variant 7 (H:A65Y) (antibody, V domains shown)
VH: B1 VH with A25Y, A58Y
VL: B1 VL
notes: as for B2
B7: AB1 affinity maturation variant 13 (H:T116R) (antibody, V domains shown)
VH: B1 VH with A25Y, T106R
VL: B1 VL
notes: as for B2
B8: AB1 affinity maturation variant 4 (H:N37T) (antibody, V domains shown)
VH: B1 VH with A25Y, N32T
VL: B1 VL
notes: as for B2
B9: AB1 affinity maturation variant 14 (L:S32D) (antibody, V domains shown)
VH: B1 VH with A25Y
VL: B1 VL with S32D
notes: as for B2
B10: AB1 alanine variant 1 (H:S29A) (antibody, V domains shown)
VH: B1 VH with A25Y, S28A
VL: B1 VL
notes: as for B2
B11: AB1 affinity maturation variant 6 (H:G64T) (antibody, V domains shown)
VH: B1 VH with A25Y, G57T
VL: B1 VL
notes: as for B2
B12: AB1 affinity maturation variant 11 (H:N113R) (antibody, V domains shown)
VH: B1 VH with A25Y, N103R
VL: B1 VL
notes: as for B2
B13: AB1 affinity maturation variant 2 (H:S29D) (antibody, V domains shown)
VH: B1 VH with A25Y, S28D
VL: B1 VL
notes: as for B2
B14: AB1 alanine variant 20 (L:S26A) (antibody, V domains shown)
VH: B1 VH with A25Y
VL: B1 VL with S26A
notes: as for B1
B15: AB1 affinity maturation variant 10 (H:T110F) (antibody, V domains shown)
VH: B1 VH with A25Y, T102F
VL: B1 VL
notes: as for B2
B16: AB1 affinity maturation variant 12 (H:F115H) (antibody, V domains shown)
VH: B1 VH with A25Y, F105H
VL: B1 VL
notes: as for B2
B17: AB1 alanine variant 16 (L:K36A) (antibody, V domains shown)
VH: B1 VH with A25Y
VL: B1 VL with K35A
notes: as for B2
B18: AB1 alanine variant 5 (H:Y55A, H:R66A, L:Y31A) (antibody, V domains shown)
VH: B1 VH with A25Y, Y50A, R59A
VL: B1 VL with Y31A
notes: as for B2

molecular target: T1, biotinylated murine CCL20 (Mus musculus, UniProt O89093, biotin); experiment: ELISA; capture ELISA: plate-coated anti-mouse Fc antibody (1 ug/mL) captures the antibody variant (5 ug/mL); biotinylated muCCL20 titrated from 0 to 600 nM, 1 h; conditions: both partners purified
T1 construct: CCL20, mouse; recombinant; m2 with biotin; also called biotinylated muCCL20; muCCL20 antigen; source: in-house, standard mammalian cell expression; biotinylated

Row | binding result | fold reduction of binding affinity against WT AB1 [fold] | Binder
1 | binds |  | B1
2 | binds |  | B2
3 | binds |  | B3
4 | binds |  | B4
5 | binds |  | B5
6 | binds |  | B6
7 | binds |  | B7
8 | binds |  | B8
9 | binds |  | B9
10 | binds |  | B10
11 | binds |  | B11
12 | binds |  | B12
13 | binds |  | B13
14 | binds |  | B14
15 | binds |  | B15
16 | binds |  | B16
17 |  | 3 | B17
18 | binds |  | B18
